± gives the standard deviation of the averaged measurements.
Key:
Saccharomyces cerevisiae [1] = experiment: protein stability index of tFT-peptide fusion (C-terminal peptide) (PSI (0-1 scale)); higher = more stable (slower turnover)
Experimental: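 MPS profiling in S. cerevisiae of the tFT-X12 degron library: putative degron peptides plus stable controls, 12 aa, fused to the C-terminus of a sfGFP-mCherry timer. Cells are FACS-sorted into 8 mCherry/sfGFP bins and deep-sequenced. PSI runs from 0 (unstable) to 1 (stable). Backgrounds are wild type, das1Δ and doa10Δ at 30 °C, and wild type, das1Δ, cdc34-1 and cdc53-1 at 37 °C; 2-3 technical replicates each.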

Saccharomyces cerevisiae [2] = experiment: as above; details: genetic background: wild type; temperature: 30 C
[3] = genetic background: cdc34-1, temperature: 37 C
[4] = genetic background: cdc53-1, temperature: 37 C
[5] = genetic background: das1 deletion, temperature: 30 C
[6] = genetic background: das1 deletion, temperature: 37 C
[7] = genetic background: doa10 deletion, temperature: 30 C
[8] = genetic background: wild type, temperature: 30 C
[9] = genetic background: wild type, temperature: 37 C
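Note: PSI is a weighted mean of sequencing reads over stability bins, variants kept only with over 10 reads, mCherry proximal and sfGFP distal, peptide attached via GGGS linker.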

Row | Sequence | protein stability index (Saccharomyces cerevisiae [1]; [3]) | protein stability index (Saccharomyces cerevisiae [1]; [4]) | protein stability index (Saccharomyces cerevisiae [1]; [5]) | protein stability index (Saccharomyces cerevisiae [1]; [6]) | protein stability index (Saccharomyces cerevisiae [1]; [7]) | protein stability index (Saccharomyces cerevisiae [1]; [8]) | protein stability index (Saccharomyces cerevisiae [1]; [9]) | protein stability index (Saccharomyces cerevisiae [2])
1 | RWRYHAYVITIL | 0.334 ± 0.02 | 0.4158 ± 0.0037 | 0.392 ± 0.02 | 0.506 ± 0.0054 | 0.118 ± 0.0098 | 0.0812 ± 0.025 | 0.0987 ± 0.0088 | 0.138 ± 0.045
2 | RYKIEKKKLMNN | 0.667 ± 0.019 | 0.741 ± 0.18 | 0.602 ± 0.01 | 0.7361 ± 0.003 | 0.182 ± 0.0036 | 0.235 ± 0.035 | 0.448 ± 0.048 | 0.42 ± 0.038
3 | SEVMVGLRLTLN | 0.67 ± 0.051 | 0.728 ± 0.018 | 0.628 ± 0.033 | 0.7149 ± 0.0029 | 0.282 ± 0.0065 | 0.318 ± 0.03 | 0.545 ± 0.029 | 0.416 ± 0.038
4 | SFRIWLFRFFFV | 0.6 ± 0.034 | 0.669 ± 0.034 | 0.555 ± 0.047 | 0.651 ± 0.008 | 0.364 ± 0.025 | 0.372 ± 0.016 | 0.541 ± 0.032 | 0.407 ± 0.018
5 | SFSFCCLLASFV | 0.605 ± 0.015 | 0.6186 ± 0.006 | 0.484 ± 0.028 | 0.617 ± 0.014 | 0.444 ± 0.025 | 0.461 ± 0.015 | 0.603 ± 0.013 | 0.44 ± 0.044
6 | SFSIPILLLAFP | 0.264 ± 0.018 | 0.2229 ± 0.00014 | 0.311 ± 0.022 | 0.409 ± 0.011 | 0.451 ± 0.026 | 0.314 ± 0.021 | 0.3719 ± 0.0017 | 0.425 ± 0.006
7 | SFYAGLVVGGVG | 0.582 ± 0.038 | 0.616 ± 0.014 | 0.508 ± 0.026 | 0.6 ± 0.0064 | 0.525 ± 0.001 | 0.5 ± 0.018 | 0.5813 ± 0.0037 | 0.528 ± 0.053
8 | SGLVAFSVCCRG | 0.4091 ± 0.00089 | 0.449 ± 0.036 | 0.301 ± 0.039 | 0.5177 ± 0.0048 | 0.2625 ± 0.0015 | 0.308 ± 0.02 | 0.4862 ± 0.0037 | 0.433 ± 0.021
9 | SGLVHVLILGAC | 0.4899 ± 0.0043 | 0.5165 ± 0.0038 | 0.347 ± 0.038 | 0.5529 ± 0.0051 | 0.313 ± 0.0048 | 0.338 ± 0.033 | 0.506 ± 0.011 | 0.45 ± 0.0019
10 | SGRGFSFVLCTV | 0.539 ± 0.039 | 0.599 ± 0.013 | 0.339 ± 0.035 | 0.58 ± 0.017 | 0.307 ± 0.013 | 0.339 ± 0.025 | 0.58 ± 0.015 | 0.4119 ± 2.1e-05
11 | SGRKNQRILGLY | 0.656 ± 0.1 | 0.7334 ± 0.0067 | 0.6488 ± 0.0054 | 0.731 ± 0.023 | 0.199 ± 0.029 | 0.221 ± 0.038 | 0.497 ± 0.011 | 0.301 ± 0.055
12 | SLAPPPPLLILR | 0.403 ± 0.049 | 0.325 ± 0.015 | 0.345 ± 0.021 | 0.479 ± 0.049 | 0.605 ± 0.0019 | 0.348 ± 0.025 | 0.4471 ± 0.0029 | 0.335 ± 0.022
13 | SLARPGLCFVIA | 0.534 ± 0.002 | 0.583 ± 0.018 | 0.356 ± 0.029 | 0.569 ± 0.011 | 0.311 ± 0.019 | 0.342 ± 0.026 | 0.543 ± 0.029 | 0.417 ± 0.034
14 | SLASPPPLLILR | 0.372 ± 0.057 | 0.342 ± 0.023 | 0.326 ± 0.032 | 0.436 ± 0.038 | 0.60698 ± 1.5e-05 | 0.354 ± 0.0056 | 0.434 ± 0.01 | 0.346 ± 0.023
15 | SLFFCIPIHSVF | 0.606 ± 0.046 | 0.585 ± 0.0079 | 0.491 ± 0.014 | 0.5855 ± 0.0036 | 0.398 ± 0.012 | 0.423 ± 0.021 | 0.524 ± 0.013 | 0.461 ± 0.014
16 | SLIVLRSIAVLD | 0.484 ± 0.015 | 0.505 ± 0.027 | 0.39 ± 0.02 | 0.543 ± 0.038 | 0.3743 ± 0.0022 | 0.392 ± 0.025 | 0.518 ± 0.013 | 0.449 ± 0.012
17 | SLRYRFLSFFFL | 0.615 ± 0.038 | 0.72 ± 0.018 | 0.636 ± 0.055 | 0.7089 ± 0.0057 | 0.189 ± 0.015 | 0.208 ± 0.019 | 0.338 ± 0.023 | 0.282 ± 0.026
18 | SLSFLRPLLLIF | 0.0444 ± 0.014 | 0.0385 ± 0.012 | 0.12 ± 0.028 | 0.118 ± 0.0077 | 0.131 ± 0.0095 | 0.0702 ± 0.013 | 0.0953 ± 0.019 | 0.102 ± 0.012
19 | SLTNYQRLIHVC | 0.147 ± 0.037 | 0.245 ± 0.064 | 0.223 ± 0.031 | 0.361 ± 0.014 | 0.0969 ± 0.0057 | 0.126 ± 0.036 | 0.0936 ± 0.0094 | 0.258 ± 0.13
20 | SLVLLVASVTGS | 0.507 ± 0.0053 | 0.546 ± 0.013 | 0.385 ± 0.024 | 0.5781 ± 0.0054 | 0.347 ± 0.01 | 0.384 ± 0.03 | 0.553 ± 0.017 | 0.464 ± 0.016

Row | Sequence | protein stability index (Saccharomyces cerevisiae [1]; [3]) | protein stability index (Saccharomyces cerevisiae [1]; [4]) | protein stability index (Saccharomyces cerevisiae [1]; [5]) | protein stability index (Saccharomyces cerevisiae [1]; [6]) | protein stability index (Saccharomyces cerevisiae [1]; [7]) | protein stability index (Saccharomyces cerevisiae [1]; [8]) | protein stability index (Saccharomyces cerevisiae [1]; [9]) | protein stability index (Saccharomyces cerevisiae [2])
21 | SMFFLFFFFFFF | 0.396 ± 0.0071 | 0.356 ± 0.018 | 0.35 ± 0.042 | 0.444 ± 0.034 | 0.432 ± 0.028 | 0.328 ± 0.017 | 0.4177 ± 0.0027 | 0.36 ± 0.04
22 | SNFQLLPLFKNI | 0.791 ± 0.12 | 0.789 ± 0.0083 | 0.651 ± 0.044 | 0.799 ± 0.027 | 0.182 ± 0.0062 | 0.216 ± 0.041 | 0.546 ± 0.056 | 0.39 ± 0.032
23 | SPRGVVIAFLVC | 0.425 ± 0.016 | 0.569 ± 0.089 | 0.356 ± 0.028 | 0.5766 ± 0.0025 | 0.11 ± 0.014 | 0.124 ± 0.025 | 0.109 ± 0.0082 | 0.129 ± 0.057
24 | SQIALIQYFHIL | 0.408 ± 0.02 | 0.655 ± 0.017 | 0.594 ± 0.015 | 0.704 ± 0.016 | 0.0937 ± 0.022 | 0.1 ± 0.017 | 0.202 ± 0.029 | 0.101 ± 0.06
25 | SQVILFFLSLCR | 0.607 ± 0.024 | 0.654 ± 0.011 | 0.494 ± 0.024 | 0.619 ± 0.0082 | 0.485 ± 0.011 | 0.4977 ± 0.0029 | 0.61 ± 0.022 | 0.552 ± 0.08
26 | SRICRTIIQLKQ | 0.561 ± 0.025 | 0.681 ± 0.013 | 0.626 ± 0.029 | 0.689 ± 0.033 | 0.107 ± 0.0018 | 0.121 ± 0.022 | 0.266 ± 0.004 | 0.168 ± 0.0027
27 | SRLVSRLGLYLS | 0.656 ± 0.054 | 0.71 ± 0.0097 | 0.626 ± 0.013 | 0.728 ± 0.035 | 0.214 ± 0.0099 | 0.22 ± 0.022 | 0.475 ± 0.03 | 0.361 ± 0.02
28 | SRRRRLVSKFLA | 0.63 ± 0.043 | 0.7 ± 0.042 | 0.653 ± 0.027 | 0.729 ± 0.03 | 0.141 ± 0.019 | 0.161 ± 0.0082 | 0.3 ± 0.0063 | 0.223 ± 0.017
29 | SRRSIGAYLFVS | 0.693 ± 0.053 | 0.761 ± 0.029 | 0.635 ± 0.039 | 0.768 ± 0.031 | 0.178 ± 0.013 | 0.208 ± 0.018 | 0.411 ± 0.025 | 0.339 ± 0.026
30 | SRSFWHAIVFLA | 0.373 ± 0.043 | 0.589 ± 0.015 | 0.542 ± 0.026 | 0.649 ± 0.0067 | 0.0822 ± 0.036 | 0.0959 ± 0.028 | 0.0963 ± 0.018 | 0.122 ± 0.085
31 | SRWMWFDWLRRA | 0.644 ± 0.027 | 0.736 ± 0.028 | 0.686 ± 0.026 | 0.747 ± 0.029 | 0.281 ± 0.012 | 0.295 ± 0.0095 | 0.541 ± 0.0019 | 0.417 ± 0.065
32 | SSCFLLFRVVWR | 0.285 ± 0.01 | 0.321 ± 0.0088 | 0.257 ± 0.03 | 0.436 ± 0.0013 | 0.292 ± 0.005 | 0.244 ± 0.026 | 0.412 ± 0.016 | 0.367 ± 0.011
33 | SSFDFVVSLCIY | 0.501 ± 0.044 | 0.526 ± 0.052 | 0.39 ± 0.021 | 0.49 ± 0.015 | 0.347 ± 0.019 | 0.36 ± 0.013 | 0.476 ± 0.014 | 0.454 ± 0.041
34 | STSSVMVFLRMC | 0.5544 ± 0.0036 | 0.681 ± 0.038 | 0.601 ± 0.013 | 0.708 ± 0.036 | 0.14 ± 0.003 | 0.124 ± 0.01 | 0.161 ± 0.042 | 0.281 ± 0.057
35 | SVAGFFLLLLLS | 0.3561 ± 0.0034 | 0.397 ± 0.0096 | 0.305 ± 0.036 | 0.487 ± 0.02 | 0.191 ± 0.0079 | 0.193 ± 0.029 | 0.338 ± 0.0072 | 0.285 ± 0.012
36 | SVECLCLFVACR | 0.1923 ± 0.00067 | 0.254 ± 0.0049 | 0.193 ± 0.026 | 0.3432 ± 0.0011 | 0.155 ± 0.0075 | 0.184 ± 0.025 | 0.288 ± 0.0032 | 0.259 ± 0.013
37 | SVFGVRARFGSV | 0.766 ± 0.0082 | 0.803 ± 0.013 | 0.709 ± 0.018 | 0.781 ± 0.027 | 0.707 ± 0.046 | 0.724 ± 0.018 | 0.7738 ± 0.0016 | 0.756 ± 0.014
38 | SVFVVVVLVFWY | 0.221 ± 0.042 | 0.3 ± 0.039 | 0.22 ± 0.029 | 0.33 ± 0.024 | 0.211 ± 0.018 | 0.22 ± 0.029 | 0.316 ± 0.016 | 0.269 ± 0.0066
39 | SVIAYTKPLWFR | 0.4205 ± 0.0039 | 0.3736 ± 0.0027 | 0.351 ± 0.032 | 0.498 ± 0.009 | 0.658 ± 0.02 | 0.361 ± 0.016 | 0.486 ± 0.013 | 0.475 ± 0.0065

From the supplement of paper PMC10724198
